Measured values from article PMC7378079 (Scientific Reports, 2020).
Like-named read-outs stand apart in the source and are kept apart here.

Key:
TNKS2 (tankyrase 2) ARC4 [1] = biological target: T1, TNKS2 (tankyrase 2) ARC4 (Homo sapiens, UniProt Q9H2K2); test: FRET competition with YFP-TBM peptide (Ki calculated from IC50); DSF Tm shift […] °C at […]; type: binding
T1 construct: ARC4 domain (ankyrin repeat cluster 4); CFP-ARC4 fusion in FRET, unlabelled ARC4 in DSF
T1 sequence (Q9H2K2 484-649 limits assumed): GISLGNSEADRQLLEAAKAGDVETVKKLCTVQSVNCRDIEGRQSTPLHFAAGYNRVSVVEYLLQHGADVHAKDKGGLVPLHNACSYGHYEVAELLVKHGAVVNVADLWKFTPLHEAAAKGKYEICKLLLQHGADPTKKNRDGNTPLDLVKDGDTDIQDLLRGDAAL

TNKS2 (tankyrase 2) ARC4 [2] = biological target: T1, TNKS2 (tankyrase 2) ARC4; test: as above; type: binding; remark: listed apart in the source
CFP-ARC2-3 (TNKS1) [3] = biological target: T2, CFP-ARC2-3 (TNKS1) (human, mCerulean fusion omitted; conventional ARC limits); test: FRET or BRET; titration for Kd after Song et al.: CFP-fusion kept constant (50 nM to 1.1 µM), YFP-fusion 0-4,000 nM; FRET emission on excitation at 430 nm; assay buffer 10 mM Bis-Tris-Propane pH 7.0, 3% PEG20,000, 0.01% Triton-X100, 0.5 mM TCEP; 384-well plates, 4 replicates; the paper calls the constants an estimation; settings: both partners purified
T2 chain: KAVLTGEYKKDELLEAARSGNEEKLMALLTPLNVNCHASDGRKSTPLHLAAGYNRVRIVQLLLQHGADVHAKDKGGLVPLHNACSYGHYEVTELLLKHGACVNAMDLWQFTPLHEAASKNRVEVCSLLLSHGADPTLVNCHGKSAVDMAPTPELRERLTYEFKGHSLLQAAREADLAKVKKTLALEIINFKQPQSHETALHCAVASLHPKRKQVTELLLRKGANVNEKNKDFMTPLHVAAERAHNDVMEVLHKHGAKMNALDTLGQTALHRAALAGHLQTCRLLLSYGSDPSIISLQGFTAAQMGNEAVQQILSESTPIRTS

CFP-ARC1 (TNKS1) = biological target: T3, CFP-ARC1 (TNKS1) (human, N-terminal mCerulean fusion omitted; conventional ARC limits); test: as above; settings: both partners purified
T3 chain: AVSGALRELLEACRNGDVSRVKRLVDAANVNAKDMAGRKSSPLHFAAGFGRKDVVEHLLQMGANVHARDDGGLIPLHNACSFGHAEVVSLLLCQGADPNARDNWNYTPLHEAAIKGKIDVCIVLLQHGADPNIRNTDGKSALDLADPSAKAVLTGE

CFP-ARC2 (TNKS1) = biological target: T4, CFP-ARC2 (TNKS1) (human, N-terminal mCerulean fusion omitted; conventional ARC limits); test: as above; settings: both partners purified
T4 chain: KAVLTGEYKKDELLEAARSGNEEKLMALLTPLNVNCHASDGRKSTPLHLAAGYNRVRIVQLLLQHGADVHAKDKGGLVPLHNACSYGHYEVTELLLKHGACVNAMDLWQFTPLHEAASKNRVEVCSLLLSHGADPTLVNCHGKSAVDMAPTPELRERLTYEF

CFP-ARC2-3 (TNKS1) [4] = biological target: T2, CFP-ARC2-3 (TNKS1); test: as above; settings: both partners purified
CFP-ARC4 (TNKS1) = biological target: T5, CFP-ARC4 (TNKS1) (human, N-terminal mCerulean fusion omitted; limits by homology to TNKS2 ARC4 488-649); test: as above; settings: both partners purified
T5 chain: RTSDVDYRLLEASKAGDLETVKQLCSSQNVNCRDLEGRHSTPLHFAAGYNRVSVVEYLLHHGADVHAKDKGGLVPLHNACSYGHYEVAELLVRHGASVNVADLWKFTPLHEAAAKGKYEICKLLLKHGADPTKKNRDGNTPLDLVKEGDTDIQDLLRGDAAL

CFP-ARC5 (TNKS1) = biological target: T6, CFP-ARC5 (TNKS1) (human, N-terminal mCerulean fusion omitted; conventional ARC limits); test: as above; settings: both partners purified
T6 chain: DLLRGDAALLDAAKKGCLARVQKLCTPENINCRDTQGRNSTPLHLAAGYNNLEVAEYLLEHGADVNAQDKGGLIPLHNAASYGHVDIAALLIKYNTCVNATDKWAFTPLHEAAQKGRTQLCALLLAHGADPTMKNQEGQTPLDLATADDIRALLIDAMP

CFP-ARC1 (TNKS2) = biological target: T7, CFP-ARC1 (TNKS2) (human, N-terminal mCerulean fusion omitted; conventional ARC limits); test: as above; settings: both partners purified
T7 chain: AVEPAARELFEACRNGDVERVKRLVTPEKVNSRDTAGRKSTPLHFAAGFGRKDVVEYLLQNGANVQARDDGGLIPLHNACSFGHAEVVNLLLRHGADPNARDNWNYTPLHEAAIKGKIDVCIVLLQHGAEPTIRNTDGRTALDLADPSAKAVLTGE

CFP-ARC4 (TNKS2) = biological target: T8, CFP-ARC4 (TNKS2) (human, N-terminal mCerulean fusion omitted; limits from the TNKS2 ARC4 crystal construct convention (e.g. 3TWR), as Table S1 is not shown); test: as above; settings: both partners purified
T8 chain: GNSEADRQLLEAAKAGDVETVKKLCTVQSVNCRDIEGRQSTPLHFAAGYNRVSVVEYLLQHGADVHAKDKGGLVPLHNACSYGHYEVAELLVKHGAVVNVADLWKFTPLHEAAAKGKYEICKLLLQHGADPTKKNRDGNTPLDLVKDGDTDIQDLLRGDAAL

CFP-ARC5 (TNKS2) = biological target: T9, CFP-ARC5 (TNKS2) (human, N-terminal mCerulean fusion omitted; conventional ARC limits); test: as above; settings: both partners purified
T9 chain: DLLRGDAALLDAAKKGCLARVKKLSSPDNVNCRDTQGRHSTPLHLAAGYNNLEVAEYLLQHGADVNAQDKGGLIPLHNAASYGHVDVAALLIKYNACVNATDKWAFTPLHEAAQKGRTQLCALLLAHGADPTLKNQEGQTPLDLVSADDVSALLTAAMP

TNKS1 SAM(E1050K)-CFP = biological target: T10, TNKS1 SAM(E1050K)-CFP (human, UniProt O95271 1030-1089, E1050K); test: as above; settings: both partners purified
T10 construct: human tankyrase 1 (TNKS1), sterile alpha-motif (SAM) domain; also called ML surface mutant of the TNKS1 SAM domain; source: E. coli BL21(DE3), purified (IMAC); not shown: mCerulean (CFP), C-terminal, kept
T10 sequence (looked up): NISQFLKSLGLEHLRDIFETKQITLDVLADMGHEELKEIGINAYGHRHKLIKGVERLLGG

unlabelled TNKS2 ARC4 = biological target: T11, unlabelled TNKS2 ARC4 (human, His6-MBP removed by TEV; the residual N-terminal SM is omitted; limits from the TNKS2 ARC4 crystal construct convention); test: differential scanning fluorimetry; 5 µM unlabelled TNKS2 ARC4, 5x SYPRO Orange, 100 µM TBM peptide; assay buffer pH 7.0, 1% DMSO; 20-95 °C at 1 °C/min; 4 replicates; settings: both partners purified
T11 chain: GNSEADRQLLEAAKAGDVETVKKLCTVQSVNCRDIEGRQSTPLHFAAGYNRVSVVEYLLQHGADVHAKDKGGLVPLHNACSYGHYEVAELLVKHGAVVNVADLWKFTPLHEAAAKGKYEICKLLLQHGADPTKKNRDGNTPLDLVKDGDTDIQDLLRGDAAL

Molecule: O=C(O)c1cc(O)c2c(Cl)cc(Cl)cc2n1 [DCKA, 5,7-dichlorokynurenic acid]
- Ki (TNKS2 (tankyrase 2) ARC4 [1]): 62000 nM

Molecule: O=c1[nH]c2cc(C(F)(F)F)c(N3CCOCC3)cc2n(CP(=O)(O)O)c1=O [Fanapanel]
- Ki (TNKS2 (tankyrase 2) ARC4 [2]): 20000 nM

B1: YFP-TBM (peptide)
chain: REAGDGEE
notes: also called TBM (REAGDGEE); YFP-fused TBM; source: E. coli BL21(DE3), purified (IMAC); not shown: mCitrine (YFP), N-terminal, kept
- Kd (CFP-ARC2-3 (TNKS1) [3]): 13 nM
- Kd (CFP-ARC1 (TNKS1)): 2600 nM
- Kd (CFP-ARC2 (TNKS1)): 8.2 nM
- Kd (CFP-ARC2-3 (TNKS1) [4]): 12 nM
- Kd (CFP-ARC4 (TNKS1)): 45 nM
- Kd (CFP-ARC5 (TNKS1)): 27 nM
- Kd (CFP-ARC1 (TNKS2)): 970 nM
- Kd (CFP-ARC4 (TNKS2)): 35 nM
- Kd (CFP-ARC5 (TNKS2)): 33 nM

B2: TNKS1 SAM(Y1073A)-YFP (domain or fragment, human, UniProt O95271 1030-1089, looked up)
chain: NISQFLKSLGLEHLRDIFETEQITLDVLADMGHEELKEIGINAAGHRHKLIKGVERLLGG
notes: human tankyrase 1 (TNKS1), sterile alpha-motif (SAM) domain; also called EH surface mutant of the TNKS1 SAM domain; source: E. coli BL21(DE3), purified (IMAC); not shown: mCitrine (YFP), C-terminal, kept
- Kd (TNKS1 SAM(E1050K)-CFP): 560 nM

B3: TBM-peptide (REAGDGEE) (peptide)
peptide: REAGDGEE
notes: also called 8-mer TBM peptide; source: synthetic peptide, bought: JPT Peptide Technologies
- Tm shift at 100 µM (unlabelled TNKS2 ARC4): 2.94 ± 0.16 °C
